In this test the target is recombinant human TTR F87M/L110M (human, UniProt P02766 21-147). Kind of test: Biacore SPR, mAb captured on anti-human chip, TTR F87M/L110M as analyte. Background: SPR reads the build-up and loss of mass on a sensor chip optically.

B1: Hu9D5 H4L1 (antibody, V domains shown)
VH: EVQLVESGGGLVQPGGSLRLSCAASGFTFSSYTMSWVRQAPGKGLEWVSEISNSGDTTYYPDTVKGRFTISRDNAKNSLYLQSNLLRAEDTAVYYCARHYYYGGGYGGWFFDVWGQGTTVTVSS
VL: DIVMTQSPLSLPVTPGEPASISCRSSKSLLHSNGNTYLYWFLQKPGQSPQLLIYRVSNLASGVPDRFSGSGSGTDFTLKISRVEAEDVGVYYCMQHLEYPLTFGQGTKLEIK
notes: not tied by words to the tested antibody; also called humanized 9D5 VHv4/VLv1
What is called Kd is the constant that tells how readily two partners part at equilibrium. For the molecule B1, the Kd came to 2.09 nM.
